Test results published in patent US20110104713A1, “PRODUCTS AND PROCESSES FOR MODULATING PEPTIDE-PEPTIDE BINDING DOMAIN INTERACTIONS” (priority 2002, published 2011).

Columns and labels:
GST-Plk1 (full-length) = biological target: T1, GST-Plk1 (full-length) (Homo sapiens, UniProt P53350); assay: Plk1 kinase assay (32P-incorporation into casein) with peptide activation; format: biochemical; details: 250 μM peptide pre-incubated 5 minutes at room temperature; three independent experiments
T1 construct: SF9 cells infected with baculoviral GST-Plk1 (full-length) were lysed; made in house; host or cells: SF9 insect cells (baculovirus)
Description: SF9 cells infected with baculoviral GST-Plk1 (full-length) were lysed in 20 mM Hepes/KOH (pH 7.5), 135 mM NaCl, 1% NP40, 5 mM EGTA, 5 μM 13-mercaptoethanol, 35 mM NaF, 0.5 mM Na3VO4, 20 mM β-glycerolphosphate, 3 μM microcystin, 1 μM okadaic acid, 10 μg/mL pepstatin, 10 μg/mL leupeptin, and 10 μg/mL aprotinin. Lysates were incubated for 2 hours at 4° C. with glutathione beads, which were subsequently washed five times with 20 mM Hepes/KOH (pH 7.5), 415 mM NaCl, 0.1% CHAPS, 5 mM EGTA, 5 μM β-mercaptoethanol, 35 mM NaF, and 0.5 mM Na3VO4 at 4° C. Bound proteins were eluted with a buffer containing 30 mM glutathione, 50 mM Hepes/KOH (pH 8.0), 25 mM NaCl, 2 mM MgCl2, 1 mM EGTA, and 5 μM β-mercaptoethanol and dialyzed against 10 mM Hepes, 10 mM NaCl, 1 mM EGTA, 1 mM DTT for 3 hours at 4° C. Kinase reactions were performed in 20 mM Hepes/KOH (pH7.5), 15 mM KCl, 10 mM MgCl2, 1 mM EGTA, 100 µM ATP, 5 μCi γ-[^32P]-ATP, 1 mM DTT, and […] casein for 15 minutes at 30° C. Reaction aliquots were removed at various time points, added to sample buffer, and boiled to arrest phosphorylation. ^32P-incorporation into casein was determined by SDS-PAGE electrophoresis, autoradiography, and densitometry using ImageQuant software (Molecular Dynamics). […]

[1] = system: centrosomal localization of GST-Plk-1 PBD in U2OS cells; assay: Centrosomal localization of GST-Plk-1 PBD in permeabilized U2OS cells with peptide competition; format: cell-based, human; details: 250 μM peptide; nocodazole-arrested, Streptolysin-O permeabilized U2OS cells
Description: U2OS cells were cultured in 8-well chamber slides and arrested at G2/M by treatment with nocodazole (50 ng/mL) for 14 hours. After rinsing with PBS, cells were incubated with 4 μM GST-Plk-1 PBD (residues 326-603) and Streptolysin-O (1 U/ml) in permeabilization buffer (25 mM HEPES (pH 7.9), 100 mM KCl, 3 mM NaCl, 200 mM sucrose, 20 mM NaF, 1 mM NaOVO4) for 20 minutes at 37° C. Cells were fixed in 3% paraformaldehyde/2% sucrose for 10 minutes at room temperature and extracted with a 0.5% Triton X-100 solution containing 20 mM Tris-HCl (pH 7.4), 50 mM NaCl, 300 mM sucrose, and 3 mM MgCl2 for 10 minutes at RT. […] Cells were examined using a Nikon Eclipse E600 fluorescence microscope equipped with a SPOT RTcamera and software (Diagnostic Instruments, Livingston, Scotland). Images were analyzed using NIH Image. […]
The normalized intensity of centrosome-specific Alexa Fluor 488 staining (N.I.AF488) or Texas Red staining (N.I.TR) above background was defined as ([Icentrosome−1cell]/Icell) where Icentrosome indicates the fluorescence intensity of either Alexa-Fluor 488 or Texas Red averaged over the centrosome and Icell indicates the overall fluorescence intensity averaged over the entire cell. The relative GST-PBD/γ-tubulin specific staining was then calculated as N.I.AF488/NITR.

T1 sequence (P53350 whole entry): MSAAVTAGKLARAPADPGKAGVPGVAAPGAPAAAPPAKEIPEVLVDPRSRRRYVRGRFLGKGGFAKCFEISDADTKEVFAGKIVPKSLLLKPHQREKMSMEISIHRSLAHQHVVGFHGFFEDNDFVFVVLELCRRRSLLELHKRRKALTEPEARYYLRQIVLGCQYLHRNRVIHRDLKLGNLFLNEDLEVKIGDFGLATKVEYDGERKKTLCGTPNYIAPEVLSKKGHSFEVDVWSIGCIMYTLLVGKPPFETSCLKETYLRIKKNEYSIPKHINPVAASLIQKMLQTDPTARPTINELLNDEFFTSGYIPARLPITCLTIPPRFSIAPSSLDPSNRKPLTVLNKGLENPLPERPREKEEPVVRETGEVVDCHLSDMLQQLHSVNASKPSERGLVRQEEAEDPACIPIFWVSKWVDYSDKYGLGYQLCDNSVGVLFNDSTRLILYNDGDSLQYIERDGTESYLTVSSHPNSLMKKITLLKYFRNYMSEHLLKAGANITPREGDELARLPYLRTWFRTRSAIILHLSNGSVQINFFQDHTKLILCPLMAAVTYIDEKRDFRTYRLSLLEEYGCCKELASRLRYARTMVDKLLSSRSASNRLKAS

enhancement of Plk1 kinase activity (rate of casein phosphorylation), factor (GST-Plk1 (full-length)): had no effect
Substance: MAGPMQ-S-T-P-LNGAKK (MAGPMQSTPLNGAKK) [PoloBoxtide-8T]
effect of peptide on centrosomal localization of Plk-1 PBD [1]: unaffected
